Laboratory results from patent US20240035008.

System: R2Tg (Taeniopygia guttata)
Assay: cell_activity
Conditions: homology-guided insertion without Cas9; RLE and RT dependent (Example 10 reports ~0.5%)

Sequence: TCCTGAGTCGTGCTGCGTCGACAACGGTAGTGACGCGTATTGCCTGGAGGGCGGACGCCGGCATTCGCCGCGTGGTTCCCAGCGACCTGTATCCCCTCGT (double strand) [NOLC1 target (homology arms)]
- activity: 0.1%
